The series is described as follows: yeast display, Sf9 membrane polyspecificity reagent, FACS + sequencing; frameworks hold sequencing errors. In short, it runs like this:
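Nanobodies from a synthetic yeast display library (Saccharomyces cerevisiae BJ5465), induced 36–48 hours with galactose, were stained 1 hour at 4 °C with 10% biotinylated, detergent-solubilized Sf9 membrane reagent, enriched on streptavidin microbeads, then FACS-sorted. Anti-HA (expression) and streptavidin (reagent binding) fluorescence set low and high (top ~1%) gates. Polyreactivity labels come from the gate of origin. Genes were colony-PCR amplified, MiSeq 2 × 250 sequenced and filtered by CDR length.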
As for “QVQLVESGGGLVQAGGSLRISCAASGRILYLNAMGWYRQAPGIEREFVAAISKSGGTTYYADSVKGRFTISRDKAKHTDYLQMNSLKPEDTAVFYCAVDIVRCGRDSWGQGTQVTVSS”, the “polyreactivity (PSR sort gate)” value is reported as “low polyreactivity”.

For the sequence “QVQLVESGGGLVQAGGSLRISCAASGRIYNRNAMGWYRQAPGKERELVAAIRSDGTTNYADSVKGRFTISRDNAKNTVYLQMISLKPEDTAVYYCNAEEGYHWWIIPEEDDYWGQGTQVTVSS”, the “polyreactivity (PSR sort gate)” value was “low polyreactivity”. “QVQLVESGGGLVQAGGSLRISCAASGRIYVYNVMGWSRQAPGKETELVAAISWGTGSTYADSVKGRFTISRDNAKNTVYLQMNSLKPEDTAVYYCAAAADYYYDHDYWGQGTQVTVSS”: the “polyreactivity (PSR sort gate)” value is “low polyreactivity”.

Regarding “QVQLVESGGGLVQAGGSLRISCAASGRTFCNNAMGWYRQAPGKERELVAAITSTGSRTYYADSVKGRFTISRDNAKNTVYLQMNSLKPEDTAVYYCNRVSHLDYYWGQGTQVTVSS”, the “polyreactivity (PSR sort gate)” value was “high polyreactivity”.

On to “QVQLVESGGGLVQAGGSLRISCAASGRTFLVYTMGWYRQAPGKERELVAAISWSDGSTYYADSVKGRFTISRDNAKNTVYLQMNSLKPEDTAVYYCAARRTGYLYRYGYWGQGTQVTVSS”, for which the “polyreactivity (PSR sort gate)” value is given as “low polyreactivity”. Regarding “QVQLVESGGGLVQAGGSLRISCAASGRTFSRYAMGWYRQAPGKERELVAAITRGGGGTYYADSVKGRFTISRDNAKNTVYLQMNSLKPEDTAVYYCNRVLLPGPQYQWGKAYDYWGQGTQVTVSS”, the “polyreactivity (PSR sort gate)” value is on record as “high polyreactivity”. On to “QVQLVESGGGLVQAGGSLRISCAASGRTFWKYAMGWYRQAPGKERELVAAITASGARTYYADSVKGRFTISRDNAKNTVYLQMNSLKPEDTAVYYCNAGSVSDRQMDYWGQGTQVTVSS”, for which the “polyreactivity (PSR sort gate)” value is “low polyreactivity”.

In the case of “QVQLVESGGGLVQAGGSLRISCAASGRTGKNAMVWYRQARGNERELVAASRYNGGSTYYADSVKGRFTISRDNANNTVYLQKNIMKPEYTAVYYCAAAFRRHNGSAFNYWGHGTQVTVSS”, the “polyreactivity (PSR sort gate)” value is “high polyreactivity”. “QVQLVESGGGLVQAGGSLRISCAASGRTLRYYAMGWYRQAPGKERELVAAITSSDRTYYADSVKGRFTISRDNAKNTVYLQMNSLKPEDTAVYYCAAYRATQFGYYYWGQGTQVTVSS”: the “polyreactivity (PSR sort gate)” value is “high polyreactivity”.

For “QVQLVESGGGLVQAGGSLRISCAASGSIFASKTMGWYRQAPGKERELVAGITKIGSSTYYADSVKGRFTISRDNAKNTVYLQMNSLKPEETAVYYCNAYLSPKQPLSPPEPTFEGGYWGQGTQVTVSS”, the “polyreactivity (PSR sort gate)” value is “low polyreactivity”. The same measure for “QVQLVESGGGLVQAGGSLRISCAASGSIFDLNAMGWYRQAPGKERELVAAISSGGRTTYADSVKGRFTISRDNAKNTVYLQMNSLKPEDTAFYYCNAVGDVFPRTGPIYDYWGQGSQVTVSS”: “high polyreactivity”; for “QVQLVESGGGLVQAGGSLRISCAASGSIFPFYAMGWYRQAPGKERELVAAISDRGGSTYYADSVKGRFTISRDNAKNTVYLQMNSLKPEDTAVYYCAKGGEVSQGYTDEYDYWGQGTQVTVSS”: “low polyreactivity”; for “QVQLVESGGGLVQAGGSLRISCAASGSIFPYNDMGWYRQAPGKERELVAVITSSGGSTYYADSVKGRFTISRDNAKNTVYLQMNSLKPEDTAVYYCAARGYNYYFGGYDYWGQGTQVTVSS”: “low polyreactivity”. The entry for “QVQLVESGGGLVQAGGSLRISCAASGSIFSFYAMGWYRQAPGKERELVAAISSGGSTYYADSVKGRFTISRDNAKNTVYLQMNSLKPEDTAVYYCAHGFAQYGLDLDPGDYDYWGQGTQVTVSS” is “low polyreactivity”. As to “QVQLVESGGGLVQAGGSLRISCAASGSIFTSNVMGWYRQAPGKERELVAAITITGTTNYADSVKGRFTISRDNAKNTVYLQMNSLKPEDTAVYYCAKRYYRFYQGWPPEDYWGQGTQVTVSS”, the “polyreactivity (PSR sort gate)” value is “low polyreactivity”. As to “QVQLVESGGGLVQAGGSLRISCAASGSIFVEYDMGWYRQAPGKERELVADISGTGNTYYADSVKGRFTISRDNAKNTVYLQMNSLKPEDTAVYYCAAGTYYQNYWSPFVWYDYWGQGTQVTVSS”, the “polyreactivity (PSR sort gate)” value was “high polyreactivity”. Take “QVQLVESGGGLVQAGGSLRISCAASGSIFYNYAMGWYRQAPGKERELVAAINRSGGITFYADSVKGRFTISRDNAKNTVYLQMNSLKPEDTAVYYCAADRSFGHHYWYTGKRYDYWGQGTQVTVSS”: the “polyreactivity (PSR sort gate)” value is listed as “low polyreactivity”. The same measure for “QVQLVESGGGLVQAGGSLRISCAASGSILDGNAMGLYRQAPGKERELFAGISESDGSTNYADSVKGRFTISRDNAKNTVYLQMNSLNPEDTAVYYCAADIWTCGDIPYDYWGQGTQVTVSS”: “low polyreactivity”. In the case of “QVQLVESGGGLVQAGGSLRISCAASGSNLSPYVMGWYRQAPGKERELVSTISRSGGRTYYADSEKGRFTISRDNAKNTFNLQMNSLKPEDTAVYYCAREDWGSYSDMDSWGQGTQVTVSS”, the “polyreactivity (PSR sort gate)” value is recorded as “low polyreactivity”. On to “QVQLVESGGGLVQAGGSLRISCAASGSTFDGYAMGWYRQAPGKERELVAAITRGGSTNYADSVKGRFTISRDNAKNTVYLQMNSLKPEDTAVYYCNARLWKRYPYDGYGYWGQGTQVTVSS”, for which the “polyreactivity (PSR sort gate)” value was “high polyreactivity”.

As to “QVQLVESGGGLVQAGGSLRISCAASGSTFDYDDMRWYRQAPGKERELVASITSGGITDYADSVKGRFTISRDNAKNTVYLQMNSLTPEDTAVYYCNAARQYSRSAEGYLVWGYSWGQGTQVTVSS”, the “polyreactivity (PSR sort gate)” value is listed as “low polyreactivity”. Consider “QVQLVESGGGLVQAGGSLRISCAASGSTFEDNAMGWYRQAPGKERELVAAITSGGNTYYADSVKGRFTISRDNSKNTVYLQMNSLKPEDTAVYYCNAVPFYYDFDYWGQGTQVTVSS”, for which the “polyreactivity (PSR sort gate)” value is reported as “low polyreactivity”.

Consider “QVQLVESGGGLVQAGGSLRISCAASGSTFGPYAMGWYRQAPGKERELVAAIRWSDGSTYYADSVKGRFTISRDNANNTVYLQMNTLKPEDTAVSYCAVDGYGYNDDYWGQGTQVTVSS”, for which the “polyreactivity (PSR sort gate)” value was “high polyreactivity”.

Turning to “QVQLVESGGGLVQAGGSLRISCAASGSTFNINAMGWYRQAPGKERELVAAIRYRGGSTNYADSVKGRFTISRDNAKNNVYLQMNSLKPEDTAVYYCAATYSRHTNGYSKYCYWGQGTQVTVSS”, the “polyreactivity (PSR sort gate)” value is listed as “high polyreactivity”.

Turning to “QVQLVESGGGLVQAGGSLRISCAASGSTFPYNAMGWYRQAPGKERELVATIDRGSTTNYADSVKGRFTISRDNAKNTVYLQMNSLKPEDTAVYYCAADANGYYNYDYWGQGTQVTVSS”, the “polyreactivity (PSR sort gate)” value is recorded as “low polyreactivity”.

Turning to “QVQLVESGGGLVQAGGSLRISCAASGSTFQGYAMGWYREAPGKERELVAAISGRSGSTYYADSVKGRFTISRDNAKNTVFLTMNSLKPVDSAVYYCNARFNRSRRTYDYWVQGTQVTVSS”, the “polyreactivity (PSR sort gate)” value is “high polyreactivity”.

On to “QVQLVESGGGLVQAGGSLRISCAASGSTFQLYSMGWSRQAPGKEREFVAAITYSGGGSTSYADSVKGRFTISRDNAKNTVYLQMNSLKPEDTAVFYCAARDFETDGYTLVAYNYWGQGSQVTVSS”, for which the “polyreactivity (PSR sort gate)” value is “low polyreactivity”. The entry for “QVQLVESGGGLVQAGGSLRISCAASGSTFVRNAMGWYRQAHGKERELVAAISVDGSSTYDADSVKGRFTISRDNAKNTVYLQMNSLKREDTAVYYCNADWEYRDFYDITYDYWGQGTQVTVSS” is “low polyreactivity”; for “QVQLVESGGGLVQAGGSLRISCAASGSTFWYYAMGRYREAPGKERELVAAIRRGGSTYYADSVKGRFTISRDNAKNTVYLQLNSLKPDDTAGYYCAAERPYKTFGYGDWGQGTQVTVSS” it is “high polyreactivity”; for “QVQLVESGGGLVQAGGSLRISCAASGSTFYIYAMGWYRPAPGKERELVAAIRRSGGSTYYADSVKGRFTISRDNAKNTVYLQMNSLKPEDTAVYYCATRYLWRPRPYDYWGQGTQVTVSS” it is “high polyreactivity”.

For the origin of these results see the nanobody polyreactivity screen of Harvey et al. (2022).
